Source: paper PMC3040262

Target: PP1α_(7-330), His6-tag removed by TEV protease, P62136
Experiment: SEC

PP1α_(7-330), His6-tag removed by TEV protease, P62136, sequence (P62136 7-330): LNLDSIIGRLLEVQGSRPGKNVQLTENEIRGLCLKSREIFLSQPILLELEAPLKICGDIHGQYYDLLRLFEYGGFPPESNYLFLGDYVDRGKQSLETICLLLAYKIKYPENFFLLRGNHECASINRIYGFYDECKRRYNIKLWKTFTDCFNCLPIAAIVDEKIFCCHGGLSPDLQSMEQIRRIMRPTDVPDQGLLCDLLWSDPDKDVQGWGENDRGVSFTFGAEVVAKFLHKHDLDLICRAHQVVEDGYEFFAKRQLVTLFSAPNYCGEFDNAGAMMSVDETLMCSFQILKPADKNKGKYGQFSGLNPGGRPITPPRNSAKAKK

B1: I-2_(9-164) C85S (domain or fragment)
chain: PIKGILKNKTSTTSSMVASAEQPRGNVDEELSKKSQKWDEMNILATYHPADKDYGLMKIDEPSTPYHSMMGDDEDASSDTEATEAMAPDILARKLAAAEGLEPKYRIQEQESSGEEDSDLSPEEREKKRQFEMKRKLHYNEGLNIKLARQLISKDL
modifications: not checked
- stoichiometry N: 1
